From patent US8173600 (CHIESI FARMACEUTICI S P A, dated 2012)
Numbered stars: 1 amine (or outer) side, 2 acyl side, 3 side chain; on linkers, the order of the positions; unused ones are H or OH. Square brackets hold non-standard residues; d marks the D form. * marks the point of attachment. 2,6‑difluorophenyl ester = C-terminal 2,6-difluorophenyl ester (dfp), Fc1cccc(F)c1O*; Asp(OMe) = aspartyl methyl ester, COC(=O)C[C@H](N[*:1])C(=O)[*:2]; Quinaldoyl = O=C(c1ccc2ccccc2n1)*

Molecular target: T1, human recombinant caspase-2 (human, UniProt P42575 170-452, limits assumed)
T1 sequence (looked up): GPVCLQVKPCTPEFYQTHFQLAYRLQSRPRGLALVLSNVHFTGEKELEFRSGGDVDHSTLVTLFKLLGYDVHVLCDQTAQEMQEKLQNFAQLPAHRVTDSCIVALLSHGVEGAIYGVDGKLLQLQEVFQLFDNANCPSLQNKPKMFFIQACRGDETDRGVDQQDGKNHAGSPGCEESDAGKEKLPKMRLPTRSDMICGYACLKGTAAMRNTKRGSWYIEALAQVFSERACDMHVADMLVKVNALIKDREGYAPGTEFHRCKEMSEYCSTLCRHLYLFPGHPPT
Assay: cell-based or functional assay

B1: 2-Quinolinylcarbonyl-L-Valinyl-L-Aspartyl (methyl ester)-L-Valinyl-L-Alanyl-L-Aspartyl (methyl ester) 2,6-difluorophenyl ester (peptide)
peptide: Quinaldoyl-V[Asp(OMe)]VA[Asp(OMe)]-{2,6‑difluorophenyl ester}
SMILES: COC(=O)C[C@H](NC(=O)[C@@H](NC(=O)c1ccc2ccccc2n1)C(C)C)C(=O)N[C@H](C(=O)N[C@@H](C)C(=O)N[C@@H](CC(=O)OC)C(=O)Oc1c(F)cccc1F)C(C)C
  IC50 (in vitro inhibition of human recombinant caspase-2): 80 nM
